# In publication PMC3143821 (Molecular cell, 2011):
# Biological target: human Dicer (human, UniProt Q9UPY3 1-1922)
# Assay: in vitro reconstitution of the complex
# Chain of human Dicer (Q9UPY3 whole entry): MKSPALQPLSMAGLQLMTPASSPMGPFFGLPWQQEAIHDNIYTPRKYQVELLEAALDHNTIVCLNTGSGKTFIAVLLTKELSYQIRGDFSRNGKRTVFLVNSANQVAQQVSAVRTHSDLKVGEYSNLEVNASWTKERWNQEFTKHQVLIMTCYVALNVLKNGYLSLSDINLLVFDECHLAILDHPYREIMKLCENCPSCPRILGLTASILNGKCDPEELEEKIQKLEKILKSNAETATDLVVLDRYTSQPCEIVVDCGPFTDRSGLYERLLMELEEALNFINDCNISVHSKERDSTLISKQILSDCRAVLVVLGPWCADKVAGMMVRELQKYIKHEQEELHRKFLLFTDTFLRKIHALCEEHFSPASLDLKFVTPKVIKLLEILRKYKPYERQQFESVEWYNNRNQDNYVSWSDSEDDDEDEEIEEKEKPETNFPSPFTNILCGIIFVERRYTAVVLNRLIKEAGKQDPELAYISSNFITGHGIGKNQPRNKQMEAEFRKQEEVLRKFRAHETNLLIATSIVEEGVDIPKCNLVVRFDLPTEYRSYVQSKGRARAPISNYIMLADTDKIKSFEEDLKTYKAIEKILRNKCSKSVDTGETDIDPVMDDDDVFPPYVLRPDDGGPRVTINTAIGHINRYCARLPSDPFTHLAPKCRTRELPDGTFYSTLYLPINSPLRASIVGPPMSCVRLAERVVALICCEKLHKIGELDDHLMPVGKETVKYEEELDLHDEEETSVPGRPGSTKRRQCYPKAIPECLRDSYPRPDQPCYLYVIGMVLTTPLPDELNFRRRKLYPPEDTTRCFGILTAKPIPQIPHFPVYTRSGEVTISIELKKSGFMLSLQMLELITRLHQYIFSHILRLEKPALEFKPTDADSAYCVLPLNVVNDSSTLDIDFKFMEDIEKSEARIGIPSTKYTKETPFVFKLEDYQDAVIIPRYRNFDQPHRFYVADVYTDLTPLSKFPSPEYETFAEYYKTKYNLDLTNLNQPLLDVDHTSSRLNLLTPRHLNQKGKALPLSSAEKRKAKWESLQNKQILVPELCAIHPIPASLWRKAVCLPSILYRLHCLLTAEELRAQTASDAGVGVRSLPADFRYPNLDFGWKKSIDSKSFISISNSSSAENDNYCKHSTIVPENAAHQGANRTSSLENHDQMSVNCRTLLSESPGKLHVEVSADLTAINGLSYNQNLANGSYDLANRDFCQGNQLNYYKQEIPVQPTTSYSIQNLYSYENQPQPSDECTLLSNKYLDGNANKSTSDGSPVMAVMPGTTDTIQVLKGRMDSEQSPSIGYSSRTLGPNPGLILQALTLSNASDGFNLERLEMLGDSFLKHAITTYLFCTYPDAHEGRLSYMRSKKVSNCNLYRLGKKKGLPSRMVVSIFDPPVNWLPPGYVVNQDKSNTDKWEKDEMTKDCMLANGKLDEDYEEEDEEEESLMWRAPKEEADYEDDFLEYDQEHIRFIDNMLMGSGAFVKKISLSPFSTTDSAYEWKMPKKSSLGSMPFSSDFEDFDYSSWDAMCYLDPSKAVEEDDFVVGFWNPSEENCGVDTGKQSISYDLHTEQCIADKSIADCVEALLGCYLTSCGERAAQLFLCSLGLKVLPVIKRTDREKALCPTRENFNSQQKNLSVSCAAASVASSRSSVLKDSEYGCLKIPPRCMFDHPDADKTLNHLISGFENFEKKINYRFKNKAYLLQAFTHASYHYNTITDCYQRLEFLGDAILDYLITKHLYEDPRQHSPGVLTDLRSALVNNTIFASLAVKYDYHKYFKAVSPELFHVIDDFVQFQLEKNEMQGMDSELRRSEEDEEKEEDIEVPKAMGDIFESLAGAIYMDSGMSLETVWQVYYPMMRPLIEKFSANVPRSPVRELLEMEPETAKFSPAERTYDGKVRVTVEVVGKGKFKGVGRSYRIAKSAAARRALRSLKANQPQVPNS
row,Binder,binding result
1,"TRBP (natural protein, human, UniProt Q15633 1-366, looked up) MSEEEQGSGTTTGCGLPSIEQMLAANPGKTPISLLQEYGTRIGKTPVYDLLKAEGQAHQPNFTFRVTVGDTSCTGQGPSKKAAKHKAAEVALKHLKGGSMLEPALEDSSSFSPLDSSLPEDIPVFTAAAAATPVPSVVLTRSPPMELQPPVSPQQSECNPVGALQELVVQKGWRLPEYTVTQESGPAHRKEFTMTCRVERFIEIGSGTSKKLAKRNAAAKMLLRVHTVPLDARDGNEVEPDDDHFSIGVGSRLDGLRNRGPGCTWDSLRNSVGEKILSLRSCSLGSLGALGPACCRVLSELSEEQAFHVSYLDIEELSLSGLCQCLVELSTQPATVCHGSATTREAARGEAARRALQYLKIMAGSK",binds
2,Argonaute2 (Ago2) (enzyme) not shown,binds
3,"PACT (natural protein, human, UniProt O75569 1-313, looked up) MSQSRHRAEAPPLEREDSGTFSLGKMITAKPGKTPIQVLHEYGMKTKNIPVYECERSDVQIHVPTFTFRVTVGDITCTGEGTSKKLAKHRAAEAAINILKANASICFAVPDPLMPDPSKQPKNQLNPIGSLQELAIHHGWRLPEYTLSQEGGPAHKREYTTICRLESFMETGKGASKKQAKRNAAEKFLAKFSNISPENHISLTNVVGHSLGCTWHSLRNSPGEKINLLKRSLLSIPNTDYIQLLSEIAKEQGFNITYLDIDELSANGQYQCLAELSTSPITVCHGSGISCGNAQSDAAHNALQYLKIIAERK",binds
